18 molecules from US20220089698A1 (published 2022) can be followed below.

Substitutions are numbered along the chain they refer to.

One assay concerns the target HIV gp120 Bal (HIV). As to the kind of experiment: single-point ELISA. Note: test concentration or dose not given here.
For another assay, the target named is HIV gp120 CAAN (HIV). As to the kind of experiment: single-point ELISA. (An ELISA detects its analyte on a solid surface through an enzyme-linked reagent.)

B1: 1.15.1-1 (antibody, human IgG1, kappa)
heavy: QVQLLQSGAAVTKPGASVRVSCEASGYNIRDYFIHWWRQAPGQGLQWVGWINPKWGQPNNPRQFQGRVSLTRHASWDFDTFSFYMDLKALRSDDTAVYFCARQRSDYWDFDVWGSGTQVTVSSASTKGPSVFPLAPSSKSTSGGTAALGCLVKDYFPEPVTVSWNSGALTSGVHTFPAVLQSSGLYSLSSVVTVPSSSLGTQTYICNVNHKPSNTKVDKKVEPKSCDKTHTCPPCPAPELLAGPDVFLFPPKPKDTLMISRTPEVTCVVVDVSHEDPEVKFNWYVDGVEVHNAKTKPREEQYNSTYRVVSVLTVLHQDWLNGKEYKCKVSNKALPLPEEKTISKAKGQPREPQVYTLPPSREEMTKNQVSLTCLVKGFYPSDIAVEWESNGQPENNYKTTPPVLDSDGSFFLYSKLTVDKSRWQQGNVFSCSVLHEALHSHYTQKSLSLSPGK
light: DIQMTQSPSSLSASVGDTVTITCQANGYLNWYQQRRGKAPKLLIYDGSKLERGVPSRFSGRRWGQEYNLTINNLQPEDIATYFCQVYEFVVPGTRLDLKRTVAAPSVFIFPPSDEQLKSGTASVVCLLNNFYPREAKVQWKVDNALQSGNSQESVTEQDSKDSTYSLSSTLTLSKADYEKHKVYACEVTHQGLSSPVTKSFNRGEC
In the case of B1, the figures for the “ELISA (A450)” value with HIV gp120 Bal and with HIV gp120 CAAN were 0.87 A450 and 1.38 A450, respectively.

B2: 1.16.1-1 (antibody, human IgG1, kappa)
heavy: B1 heavy with W55G
light: B1 light
As for B2, the “ELISA (A450)” value with HIV gp120 Bal turned out to be 0.92 A450; in the assay with HIV gp120 CAAN, 0.87 A450.

B3: 1.22.1-1 (antibody, human IgG1, kappa)
heavy: QVQLLQSGAAVTKPGASVRVSCEASGYNIRDYFIHWWRQAPGQGLQWVGWINPKTGQPNNPRQFQGRVSLTRHASTFSFYMDLKALRSDDTAVYFCARQRSDYWDFDVWGSGTQVTVSSASTKGPSVFPLAPSSKSTSGGTAALGCLVKDYFPEPVTVSWNSGALTSGVHTFPAVLQSSGLYSLSSVVTVPSSSLGTQTYICNVNHKPSNTKVDKKVEPKSCDKTHTCPPCPAPELLAGPDVFLFPPKPKDTLMISRTPEVTCVVVDVSHEDPEVKFNWYVDGVEVHNAKTKPREEQYNSTYRVVSVLTVLHQDWLNGKEYKCKVSNKALPLPEEKTISKAKGQPREPQVYTLPPSREEMTKNQVSLTCLVKGFYPSDIAVEWESNGQPENNYKTTPPVLDSDGSFFLYSKLTVDKSRWQQGNVFSCSVLHEALHSHYTQKSLSLSPGK
light: B1 light
With B3, the “ELISA (A450)” value was 1.03 A450 in the assay with HIV gp120 Bal and 0.87 A450 with HIV gp120 CAAN.

B4: 1.30.1-1 (antibody, human IgG1, kappa)
heavy: B1 heavy with W55T, Q118M
light: B1 light
In the case of B4, the figures for the “ELISA (A450)” value with HIV gp120 Bal and with HIV gp120 CAAN were 0.81 A450 and 1.05 A450, respectively.

B5: 1.1.2-1 (antibody, human IgG1)
heavy: B1 heavy with W55T
VL: DIQMTQSPSSLSASVGDTVTITCQANGYLNWYQQKPGKAPKLLIYDGSKLERGVPSRFSGRRWGQEYNLTINNLQPEDIATYFCQVYEFVVPGTKVDIK
On to B5, for which the “ELISA (A450)” value in the assay with HIV gp120 Bal turned out to be 0.95 A450; in the assay with HIV gp120 CAAN, 0.93 A450.

B6: 1.26.1-1 (antibody, human IgG1, kappa)
heavy: B1 heavy with W55T, V97T
light: B1 light
As to B6, the “ELISA (A450)” value in the assay with HIV gp120 Bal amounted to 0.81 A450; with HIV gp120 CAAN, 1 A450.

B7: 1.29.1-1 (antibody, human IgG1, kappa)
heavy: B1 heavy with W55T, S115Q
light: B1 light
Take B7: the “ELISA (A450)” value in the assay with HIV gp120 Bal is 1.03 A450; with HIV gp120 CAAN, 1.08 A450.

B8: 1.28.1-1 (antibody, human IgG1, kappa)
heavy: B1 heavy with W55T, V97T, S105T
light: B1 light
With B8, the results for the “ELISA (A450)” value in the assay with HIV gp120 Bal and with HIV gp120 CAAN were 1.05 A450 and 0.99 A450, respectively.

B9: 1.24.1-1 (antibody, human IgG1, kappa)
heavy: B1 heavy with W55T, Y84S
light: B1 light
In the case of B9, the “ELISA (A450)” value turned out to be 0.98 A450 with HIV gp120 Bal and 0.9 A450 with HIV gp120 CAAN.

B10: 1.27.1-1 (antibody, human IgG1, kappa)
heavy: B1 heavy with W55T, S105T
light: B1 light
On to B10, for which the “ELISA (A450)” value in the assay with HIV gp120 Bal and in the assay with HIV gp120 CAAN was 0.86 A450 throughout.

B11: 1.25.1-1 (antibody, human IgG1, kappa)
heavy: B1 heavy with W55T, K88S, A89R
light: B1 light
For the molecule B11, the entries for the “ELISA (A450)” value with HIV gp120 Bal and with HIV gp120 CAAN were 1.07 A450 and 1.16 A450, respectively.

B12: 1.19.1-1 (antibody, human IgG1, kappa)
heavy: B1 heavy with W55T, S69T
light: B1 light
As for B12, the entries for the “ELISA (A450)” value with HIV gp120 Bal and with HIV gp120 CAAN were 0.85 A450 and 0.93 A450, respectively.

B13: 1.1.3-1 (antibody, human IgG1, kappa)
heavy: B1 heavy with W55T
light: B1 light with D1E
With B13, the “ELISA (A450)” value with HIV gp120 Bal was 0.97 A450; in the assay with HIV gp120 CAAN, 1 A450.

B14: 1.17.1-1 (antibody, human IgG1, kappa)
heavy: B1 heavy with W55A
light: B1 light
For the molecule B14, the “ELISA (A450)” value with HIV gp120 Bal was 0.84 A450; with HIV gp120 CAAN it was 0.7 A450.

B15: 1.20.1-1 (antibody, human IgG1, kappa)
heavy: B1 heavy with W55T, S69T, L70M
light: B1 light
For B15, the “ELISA (A450)” value worked out at 0.89 A450 in the assay with HIV gp120 Bal and 0.8 A450 with HIV gp120 CAAN.

B16: 1.21.1-1 (antibody, human IgG1, kappa)
heavy: B1 heavy with W55T, H73D
light: B1 light
Turning to B16, the “ELISA (A450)” value with HIV gp120 Bal was 0.87 A450; in the assay with HIV gp120 CAAN, 0.77 A450.

B17: 1v2-1 (antibody, human IgG1, kappa)
heavy: B1 heavy with W55T, F81Y
light: B1 light
As for B17, the “ELISA (A450)” value in the assay with HIV gp120 Bal turned out to be 1.03 A450; with HIV gp120 CAAN it was 1 A450.

B18: 1.18.1-1 (antibody, human IgG1, kappa)
heavy: B1 heavy with W55H
light: B1 light
As to B18, the “ELISA (A450)” value with HIV gp120 Bal was determined as 0.97 A450; with HIV gp120 CAAN, 1.18 A450.
